Results on one molecule are retold here after publication PMC3766439 (Clinical cancer research : an official journal of the …, 2013).

In this experiment the target is Nus-Tag EGFRvIII ECD deletion mutant CT 292–346 (Homo sapiens, UniProt P00533). In words: ELISA. Background: An ELISA detects its analyte on a solid surface through an enzyme-linked reagent.

B1: D2C7 monoclonal antibody (antibody, V domains shown)
VH: EVHLQQSGPELEKPGASVKISCKASGYSFTGYNMNWVKQSNGKSLEWIGNIDPYYGDTDYDQKFKGKATLTADKSSNTVYMQLQSLTSEDSAVYYCARGAHRDYYAMDYWGQGTSVTVSS
VL: DIQMTQSPASLSASVGETVTITCRTSENIYIYLAWYQQKQGKSPQLLVYNAKTLAEGVPSRFSGSGSGTQFSLKINGLQPEDFGGYYCQQHYGTPYTFGGGTKLEKK
In the case of B1, the binding result is “binds”.
